T1: FcgRIIa H (human, UniProt P12318)
T1 chain: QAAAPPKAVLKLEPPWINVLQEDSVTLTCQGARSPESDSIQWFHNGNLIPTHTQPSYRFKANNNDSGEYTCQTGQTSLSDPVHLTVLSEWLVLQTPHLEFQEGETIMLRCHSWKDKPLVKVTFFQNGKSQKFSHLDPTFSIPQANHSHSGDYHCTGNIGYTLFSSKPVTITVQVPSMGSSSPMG

T2: FcgRIIa R (human, UniProt P12318)
T2 chain: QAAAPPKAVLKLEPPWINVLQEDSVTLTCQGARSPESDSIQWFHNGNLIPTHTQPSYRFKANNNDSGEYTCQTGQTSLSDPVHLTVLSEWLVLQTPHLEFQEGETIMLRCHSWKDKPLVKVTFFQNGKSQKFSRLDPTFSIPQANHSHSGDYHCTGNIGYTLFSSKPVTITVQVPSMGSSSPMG

T3: FcgRIa (human, UniProt P12314)
T3 chain: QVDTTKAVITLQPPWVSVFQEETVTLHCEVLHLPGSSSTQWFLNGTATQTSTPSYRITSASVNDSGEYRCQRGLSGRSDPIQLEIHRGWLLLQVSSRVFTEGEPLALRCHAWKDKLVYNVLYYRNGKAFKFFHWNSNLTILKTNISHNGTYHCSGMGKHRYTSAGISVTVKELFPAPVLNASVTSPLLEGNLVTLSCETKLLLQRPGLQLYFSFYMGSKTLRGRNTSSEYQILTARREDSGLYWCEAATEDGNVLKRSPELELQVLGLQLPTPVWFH

T4: FcgRIIb (human, UniProt P31994)
T4 chain: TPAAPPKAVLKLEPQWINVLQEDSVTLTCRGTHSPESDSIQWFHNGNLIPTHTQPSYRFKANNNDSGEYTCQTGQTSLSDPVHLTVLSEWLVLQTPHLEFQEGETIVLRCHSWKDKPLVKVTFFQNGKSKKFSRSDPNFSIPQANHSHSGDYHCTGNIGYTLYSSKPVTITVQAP


Columns and labels:
Test in all cases: SPR
FcgRIIa H = target: T1, FcgRIIa H
FcgRIIIa V = FcgRIIIa V (human, UniProt P08637)
Chain of FcgRIIIa V (P08637 17-208 F176V): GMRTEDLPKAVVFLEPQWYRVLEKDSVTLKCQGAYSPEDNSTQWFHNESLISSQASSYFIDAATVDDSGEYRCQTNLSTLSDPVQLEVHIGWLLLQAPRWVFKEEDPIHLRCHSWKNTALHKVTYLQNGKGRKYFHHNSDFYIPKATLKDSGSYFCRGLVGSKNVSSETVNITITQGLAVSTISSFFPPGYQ

FcgRIIa R = target: T2, FcgRIIa R
FcgRIa = target: T3, FcgRIa
FcgRIIb = target: T4, FcgRIIb
FcgRIIIa F = FcgRIIIa F (human, UniProt P08637)
Chain of FcgRIIIa F (P08637 17-208): as the sequence (P08637 17-208 F176V) above, with V160F counted along it

Kd (FcgRIIa H) [nM]	Kd (FcgRIIIa V) [nM]	Kd (FcgRIIa R) [nM]	Kd (FcgRIa) [nM]	Kd (FcgRIIb) [nM]	Kd (FcgRIIIa F) [nM]	Binder
330	0.8	1100	0.061	7100	3.4	H240-Kn214/H240-Hl076/L73-k0 (antibody) chain 1: QDQLVQSGAEVKKPGASVKVSCKASGFNIKDTYIQWVRQAPGQGLEWMGRIDPLRKQTKYREKFEGRVTITADTSTNTAYMELSSLRSEDTAVYYCVRSGREFDYWGQGTLVTVSSASTKGPSVFPLAPSSKSTSGGTAALGCLVKDYFPEPVTVSWNSGALTSGVHTFPAVLQSSGLYSLSSVVTVPSSSLGTQTYICNVNHKPSNTKVDKKVEPKSCDKTHTCPPCPAPEGQWGPMVFLFPPKPKDTLMISRTPEVTCVVVDVSDEEPEVKFNWYVDGVEVHNAKTKPREEQYNATYRVVSVLTVLHQDWLNGKEYKCKVSNKALPAPIEKTISKAKGQPREPQVCTLPPSRDELTKNQVSLWCLVKGFYPSDIAVEWESNGQPENNYKTTPPVLDSDGSFFLYSKLTVDKSRWQQGNVFSCSVMHEALHNHYTQKSLSLSP chain 2: QDQLVQSGAEVKKPGASVKVSCKASGFNIKDTYIQWVRQAPGQGLEWMGRIDPLRKQTKYREKFEGRVTITADTSTNTAYMELSSLRSEDTAVYYCVRSGREFDYWGQGTLVTVSSASTKGPSVFPLAPSSKSTSGGTAALGCLVKDYFPEPVTVSWNSGALTSGVHTFPAVLQSSGLYSLSSVVTVPSSSLGTQTYICNVNHKPSNTKVDKKVEPKSCDKTHTCPPCPAPELLGGPSVFLFPPKPKDTLMISRTPEVTCVVVDVSHEEPEVKFNWYVDGVEVHNAKTKPREEQYNSTYRVVSVLTVLHQDWLNGKEYKCKVSNDALPMPIEETISKAKGQPREPQVYTLPPSRCELTKNQVSLSCAVKGFYPSDIAVEWESNGQPENNYKTTPPVLDSDGSFFLVSKLTVDKSRWQQGNVFSCSVMHEALHNHYTQKSLSLSP chain 3: DIQMTQSPSSLSASVGDRVTITCRASQDIHKYIAWYQQKPGQAPRLLIQYTSTLQPGVPSRFSGSGSGTDYTFTISSLQPEDIATYYCLQYEQLRTFGGGTKVEIKRTVAAPSVFIFPPSDEQLKSGTASVVCLLNNFYPREAKVQWKVDNALQSGNSQESVTEQDSKDSTYSLSSTLTLSKADYEKHKVYACEVTHQGLSSPVTKSFNRGEC
360	0.38	640	0.071	4100	1.6	H240-Kn202/H240-Hl076/L73-k0 (antibody) chain 1: QDQLVQSGAEVKKPGASVKVSCKASGFNIKDTYIQWVRQAPGQGLEWMGRIDPLRKQTKYREKFEGRVTITADTSTNTAYMELSSLRSEDTAVYYCVRSGREFDYWGQGTLVTVSSASTKGPSVFPLAPSSKSTSGGTAALGCLVKDYFPEPVTVSWNSGALTSGVHTFPAVLQSSGLYSLSSVVTVPSSSLGTQTYICNVNHKPSNTKVDKKVEPKSCDKTHTCPPCPAPEEQWGPMVFLFPPKPKDTLMISRTPEVTCVVVDVSDEEPEVKFNWYVDGVEVHNAKTKPREEQYNATYRVVSVLTVLHQDWLNGKEYKCKVSNKALPAPIEKTISKAKGQPREPQVCTLPPSRDELTKNQVSLWCLVKGFYPSDIAVEWESNGQPENNYKTTPPVLDSDGSFFLYSKLTVDKSRWQQGNVFSCSVMHEALHNHYTQKSLSLSP chain 2: QDQLVQSGAEVKKPGASVKVSCKASGFNIKDTYIQWVRQAPGQGLEWMGRIDPLRKQTKYREKFEGRVTITADTSTNTAYMELSSLRSEDTAVYYCVRSGREFDYWGQGTLVTVSSASTKGPSVFPLAPSSKSTSGGTAALGCLVKDYFPEPVTVSWNSGALTSGVHTFPAVLQSSGLYSLSSVVTVPSSSLGTQTYICNVNHKPSNTKVDKKVEPKSCDKTHTCPPCPAPELLGGPSVFLFPPKPKDTLMISRTPEVTCVVVDVSHEEPEVKFNWYVDGVEVHNAKTKPREEQYNSTYRVVSVLTVLHQDWLNGKEYKCKVSNDALPMPIEETISKAKGQPREPQVYTLPPSRCELTKNQVSLSCAVKGFYPSDIAVEWESNGQPENNYKTTPPVLDSDGSFFLVSKLTVDKSRWQQGNVFSCSVMHEALHNHYTQKSLSLSP chain 3: DIQMTQSPSSLSASVGDRVTITCRASQDIHKYIAWYQQKPGQAPRLLIQYTSTLQPGVPSRFSGSGSGTDYTFTISSLQPEDIATYYCLQYEQLRTFGGGTKVEIKRTVAAPSVFIFPPSDEQLKSGTASVVCLLNNFYPREAKVQWKVDNALQSGNSQESVTEQDSKDSTYSLSSTLTLSKADYEKHKVYACEVTHQGLSSPVTKSFNRGEC
49	0.76	46	0.43	270	3.4	H240-Kn203/H240-Hl068/L73-k0 (antibody) chain 1: QDQLVQSGAEVKKPGASVKVSCKASGFNIKDTYIQWVRQAPGQGLEWMGRIDPLRKQTKYREKFEGRVTITADTSTNTAYMELSSLRSEDTAVYYCVRSGREFDYWGQGTLVTVSSASTKGPSVFPLAPSSKSTSGGTAALGCLVKDYFPEPVTVSWNSGALTSGVHTFPAVLQSSGLYSLSSVVTVPSSSLGTQTYICNVNHKPSNTKVDKKVEPKSCDKTHTCPPCPAPEFYWGPMVFLFPPKPKDTLMISRTPEVTCVVVDVSDEDPEVKFNWYVDGVEVHNAKTKPREEQYNATYRVVSVLTVLHQDWLNGKEYKCKVSNKDLPAPIEKTISKAKGQPREPQVCTLPPSRDELTKNQVSLWCLVKGFYPSDIAVEWESNGQPENNYKTTPPVLDSDGSFFLYSKLTVDKSRWQQGNVFSCSVMHEALHNHYTQKSLSLSP chain 2: QDQLVQSGAEVKKPGASVKVSCKASGFNIKDTYIQWVRQAPGQGLEWMGRIDPLRKQTKYREKFEGRVTITADTSTNTAYMELSSLRSEDTAVYYCVRSGREFDYWGQGTLVTVSSASTKGPSVFPLAPSSKSTSGGTAALGCLVKDYFPEPVTVSWNSGALTSGVHTFPAVLQSSGLYSLSSVVTVPSSSLGTQTYICNVNHKPSNTKVDKKVEPKSCDKTHTCPPCPAPELLGGPSVFLFPPKPKDTLMISRTPEVTCVVVDVSHEEPEVKFNWYVDGVEVHNAKTKPREEQYNSTYRVVSVLTVLHQDWLNGKEYKCKVSNDALPKPIEETISKAKGQPREPQVYTLPPSRCELTKNQVSLSCAVKGFYPSDIAVEWESNGQPENNYKTTPPVLDSDGSFFLVSKLTVDKSRWQQGNVFSCSVMHEALHNHYTQKSLSLSP chain 3: DIQMTQSPSSLSASVGDRVTITCRASQDIHKYIAWYQQKPGQAPRLLIQYTSTLQPGVPSRFSGSGSGTDYTFTISSLQPEDIATYYCLQYEQLRTFGGGTKVEIKRTVAAPSVFIFPPSDEQLKSGTASVVCLLNNFYPREAKVQWKVDNALQSGNSQESVTEQDSKDSTYSLSSTLTLSKADYEKHKVYACEVTHQGLSSPVTKSFNRGEC
27	0.41	20	0.31	130	2.3	H240-Kn199/H240-Hl068/L73-k0 (antibody) chain 1: QDQLVQSGAEVKKPGASVKVSCKASGFNIKDTYIQWVRQAPGQGLEWMGRIDPLRKQTKYREKFEGRVTITADTSTNTAYMELSSLRSEDTAVYYCVRSGREFDYWGQGTLVTVSSASTKGPSVFPLAPSSKSTSGGTAALGCLVKDYFPEPVTVSWNSGALTSGVHTFPAVLQSSGLYSLSSVVTVPSSSLGTQTYICNVNHKPSNTKVDKKVEPKSCDKTHTCPPCPAPELYWGPMVFLFPPKPKDTLMISRTPEVTCVVVDVSDEDPEVKFNWYVDGVEVHNAKTKPREEQYNATYRVVSVLTVLHQDWLNGKEYKCKVSNKDLPAPIEKTISKAKGQPREPQVCTLPPSRDELTKNQVSLWCLVKGFYPSDIAVEWESNGQPENNYKTTPPVLDSDGSFFLYSKLTVDKSRWQQGNVFSCSVMHEALHNHYTQKSLSLSP chain 2: QDQLVQSGAEVKKPGASVKVSCKASGFNIKDTYIQWVRQAPGQGLEWMGRIDPLRKQTKYREKFEGRVTITADTSTNTAYMELSSLRSEDTAVYYCVRSGREFDYWGQGTLVTVSSASTKGPSVFPLAPSSKSTSGGTAALGCLVKDYFPEPVTVSWNSGALTSGVHTFPAVLQSSGLYSLSSVVTVPSSSLGTQTYICNVNHKPSNTKVDKKVEPKSCDKTHTCPPCPAPELLGGPSVFLFPPKPKDTLMISRTPEVTCVVVDVSHEEPEVKFNWYVDGVEVHNAKTKPREEQYNSTYRVVSVLTVLHQDWLNGKEYKCKVSNDALPKPIEETISKAKGQPREPQVYTLPPSRCELTKNQVSLSCAVKGFYPSDIAVEWESNGQPENNYKTTPPVLDSDGSFFLVSKLTVDKSRWQQGNVFSCSVMHEALHNHYTQKSLSLSP chain 3: DIQMTQSPSSLSASVGDRVTITCRASQDIHKYIAWYQQKPGQAPRLLIQYTSTLQPGVPSRFSGSGSGTDYTFTISSLQPEDIATYYCLQYEQLRTFGGGTKVEIKRTVAAPSVFIFPPSDEQLKSGTASVVCLLNNFYPREAKVQWKVDNALQSGNSQESVTEQDSKDSTYSLSSTLTLSKADYEKHKVYACEVTHQGLSSPVTKSFNRGEC
